Test results: IntAct's records for PubMed 18068675

B1: Neurovirulence factor ICP34.5 (Human herpesvirus 1 (strain 17) (HHV-1)), P36313 (parent)
chain: MARRRRHRGPRRPRPPGPTGAVPTAQSQVTSTPNSEPAVRSAPAAAPPPPPAGGPPPSCSLLLRQWLHVPESASDDDDDDDWPDSPPPEPAPEARPTAAAPRPRPPPPGVGPGGGADPSHPPSRPFRLPPRLALRLRVTAEHLARLRLRRAGGEGAPEPPATPATPATPATPATPARVRFSPHVRVRHLVVWASAARLARRGSWARERADRARFRRRVAEAEAVIGPCLGPEARARALARGAGPANSV

Variants of: B1
Settings: with pp1a_human PPP1CA

Variant | effect of a mutation on the interaction
V178E;F180L | decreasing interaction

Variants of: B1
Settings: with pp1a_human PPP1CA
Remark: another data set of the same source

Variant | effect of a mutation on the interaction
V178E;F180L | disrupting interaction

Variants of: B1
Settings: with pp1a_human PPP1CA
Remark: another data set of the same source

Variant | effect of a mutation on the interaction
R234E | decreasing interaction

Variants of: B1
Settings: with pp1a_human PPP1CA
Remark: another data set of the same source

Variant | effect of a mutation on the interaction
R236D | decreasing interaction
